Measured values taken from US20220177596A1 (Bristol-Myers Squibb, published 2022).
Numbering of substitutions follows the chain as printed.

B1: humanized Y1238 hz25 (hz-HC5 / hz-LC5), IgG1.3f (antibody, V domains shown)
VH: QVQLVQSGAEVKKPGASVKVSCKASGYAFTNYLIEWVRQRPGQGLEWMGVINPGSGGTNYNEKFKGRVTMTADKSISTAYMELSRLRSDDTAVYYCARSQLGRRFDYWGQGTLVTVSS
VL: DIQMTQSPSSLSASVGDRVTITCKASQDVRTGVAWYQQKPGQAPKLLIYSASYRNTGVPSRFSGSRSGTDFTFTISSLQPEDIAVYYCQQHYSPPYTFGGGTKVEIK
notes: IgG1.3f heavy constant, common CL; expression supernatant; also called Sup 25
B2: humanized Y1238 hz30 (hz-HC6 / hz-LC5), IgG1.3f (antibody, V domains shown)
VH: B1 VH with M70L
VL: B1 VL
notes: IgG1.3f heavy constant, common CL; expression supernatant; also called Sup 30
B3: humanized Y1238 hz17 (hz-HC4 / hz-LC2), IgG1.3f (antibody, V domains shown)
VH: B1 VH with R40A
VL: B1 VL with Q42K, V85T
notes: IgG1.3f heavy constant, common CL; expression supernatant; also called Sup 17
B4: humanized Y1238 hz2 (hz-HC1 / hz-LC2), IgG1.3f (antibody, V domains shown)
VH: B1 VH with R40A, A72R, K74T
VL: B1 VL with Q42K, V85T
notes: IgG1.3f heavy constant, common CL; expression supernatant; also called Sup 2
B5: humanized Y1238 hz19 (hz-HC4 / hz-LC4), IgG1.3f (antibody, V domains shown)
VH: B1 VH with R40A
VL: B1 VL with A43S, P80A
notes: IgG1.3f heavy constant, common CL; expression supernatant; also called Sup 19
B6: humanized Y1238 hz7 (hz-HC2 / hz-LC2), IgG1.3f (antibody, V domains shown)
VH: B1 VH with R40A, K74T
VL: B1 VL with Q42K, V85T
notes: IgG1.3f heavy constant, common CL; expression supernatant; also called Sup 7
B7: humanized Y1238 hz26 (hz-HC6 / hz-LC1), IgG1.3f (antibody, V domains shown)
VH: B1 VH with M70L
VL: B1 VL with Q42K, R66G, V85T
notes: IgG1.3f heavy constant, common CL; expression supernatant; also called Sup 26
B8: humanized Y1238 hz20 (hz-HC4 / hz-LC5), IgG1.3f (antibody, V domains shown)
VH: B1 VH with R40A
VL: B1 VL
notes: IgG1.3f heavy constant, common CL; expression supernatant; also called Sup 20
B9: humanized Y1238 hz33 (hz-HC7 / hz-LC3), IgG1.3f (antibody, V domains shown)
VH: B1 VH with K12V, I76S, E82Q, Y95F
VL: B1 VL with A43S
notes: IgG1.3f heavy constant, common CL; expression supernatant; also called Sup 33
B10: humanized Y1238 hz29 (hz-HC6 / hz-LC4), IgG1.3f (antibody, V domains shown)
VH: B1 VH with M70L
VL: B1 VL with A43S, P80A
notes: IgG1.3f heavy constant, common CL; expression supernatant; also called Sup 29
B11: humanized Y1238 hz22 (hz-HC5 / hz-LC2), IgG1.3f (antibody, V domains shown)
VH: B1 VH
VL: B1 VL with Q42K, V85T
notes: IgG1.3f heavy constant, common CL; expression supernatant; also called Sup 22
B12: humanized Y1238 hz16 (hz-HC4 / hz-LC1), IgG1.3f (antibody, V domains shown)
VH: B1 VH with R40A
VL: B1 VL with Q42K, R66G, V85T
notes: IgG1.3f heavy constant, common CL; expression supernatant; also called Sup 16
B13: humanized Y1238 hz9 (hz-HC2 / hz-LC4), IgG1.3f (antibody, V domains shown)
VH: B1 VH with R40A, K74T
VL: B1 VL with A43S, P80A
notes: IgG1.3f heavy constant, common CL; expression supernatant; also called Sup 9
B14: humanized Y1238 hz27 (hz-HC6 / hz-LC2), IgG1.3f (antibody, V domains shown)
VH: B1 VH with M70L
VL: B1 VL with Q42K, V85T
notes: IgG1.3f heavy constant, common CL; expression supernatant; also called Sup 27
B15: humanized Y1238 hz4 (hz-HC1 / hz-LC4), IgG1.3f (antibody, V domains shown)
VH: B1 VH with R40A, A72R, K74T
VL: B1 VL with A43S, P80A
notes: IgG1.3f heavy constant, common CL; expression supernatant; also called Sup 4
B16: humanized Y1238 hz21 (hz-HC5 / hz-LC1), IgG1.3f (antibody, V domains shown)
VH: B1 VH
VL: B1 VL with Q42K, R66G, V85T
notes: IgG1.3f heavy constant, common CL; expression supernatant; also called Sup 21
B17: humanized Y1238 hz31 (hz-HC7 / hz-LC1), IgG1.3f (antibody, V domains shown)
VH: B1 VH with K12V, I76S, E82Q, Y95F
VL: B1 VL with Q42K, R66G, V85T
notes: IgG1.3f heavy constant, common CL; expression supernatant; also called Sup 31
B18: humanized Y1238 hz6 (hz-HC2 / hz-LC1), IgG1.3f (antibody, V domains shown)
VH: B1 VH with R40A, K74T
VL: B1 VL with Q42K, R66G, V85T
notes: IgG1.3f heavy constant, common CL; expression supernatant; also called Sup 6
B19: humanized Y1238 hz18 (hz-HC4 / hz-LC3), IgG1.3f (antibody, V domains shown)
VH: B1 VH with R40A
VL: B1 VL with A43S
notes: IgG1.3f heavy constant, common CL; expression supernatant; also called Sup 18
B20: humanized Y1238 hz5 (hz-HC1 / hz-LC5), IgG1.3f (antibody, V domains shown)
VH: B1 VH with R40A, A72R, K74T
VL: B1 VL
notes: IgG1.3f heavy constant, common CL; expression supernatant; also called Sup 5
B21: humanized Y1238 hz28 (hz-HC6 / hz-LC3), IgG1.3f (antibody, V domains shown)
VH: B1 VH with M70L
VL: B1 VL with A43S
notes: IgG1.3f heavy constant, common CL; expression supernatant; also called Sup 28
B22: humanized Y1238 hz24 (hz-HC5 / hz-LC4), IgG1.3f (antibody, V domains shown)
VH: B1 VH
VL: B1 VL with A43S, P80A
notes: IgG1.3f heavy constant, common CL; expression supernatant; also called Sup 24
B23: humanized Y1238 hz23 (hz-HC5 / hz-LC3), IgG1.3f (antibody, V domains shown)
VH: B1 VH
VL: B1 VL with A43S
notes: IgG1.3f heavy constant, common CL; expression supernatant; also called Sup 23
B24: humanized Y1238 hz32 (hz-HC7 / hz-LC2), IgG1.3f (antibody, V domains shown)
VH: B1 VH with K12V, I76S, E82Q, Y95F
VL: B1 VL with Q42K, V85T
notes: IgG1.3f heavy constant, common CL; expression supernatant; also called Sup 32
B25: humanized Y1238 hz8 (hz-HC2 / hz-LC3), IgG1.3f (antibody, V domains shown)
VH: B1 VH with R40A, K74T
VL: B1 VL with A43S
notes: IgG1.3f heavy constant, common CL; expression supernatant; also called Sup 8
B26: humanized Y1238 hz34 (hz-HC7 / hz-LC4), IgG1.3f (antibody, V domains shown)
VH: B1 VH with K12V, I76S, E82Q, Y95F
VL: B1 VL with A43S, P80A
notes: IgG1.3f heavy constant, common CL; expression supernatant; also called Sup 34
B27: humanized Y1238 hz10 (hz-HC2 / hz-LC5), IgG1.3f (antibody, V domains shown)
VH: B1 VH with R40A, K74T
VL: B1 VL
notes: IgG1.3f heavy constant, common CL; expression supernatant; also called Sup 10
B28: humanized Y1238 hz3 (hz-HC1 / hz-LC3), IgG1.3f (antibody, V domains shown)
VH: B1 VH with R40A, A72R, K74T
VL: B1 VL with A43S
notes: IgG1.3f heavy constant, common CL; expression supernatant; also called Sup 3

Target: T1, human-CD40 monomer (human, UniProt P25942 21-193, limits assumed)
T1 construct: also called hCD40-monomer; human-CD40-monomer protein
T1 sequence (P25942 21-193 limits assumed): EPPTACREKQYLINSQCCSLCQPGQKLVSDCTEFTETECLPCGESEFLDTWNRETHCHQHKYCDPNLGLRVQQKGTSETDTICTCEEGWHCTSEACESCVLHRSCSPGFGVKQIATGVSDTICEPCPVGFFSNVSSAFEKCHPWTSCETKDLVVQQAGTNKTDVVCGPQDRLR
Experiment: SPR 2 pt screen, Ab on protein A
Procedure: The VH sequences were formatted in the context of an IgG1.3f isotype. The Vκ sequences were formatted as a full light chain with a common CL sequence. All 55 combinations of these humanized HC and LC constructs, as well as the chimeric Y1238 molecule were expressed as 3 ml supernatants for binding analysis by SPR. Each of the 56 supernatants, as well as a purified Y1238-chimeric IgG1 antibody, was captured on a protein A sensor chip and tested for binding to two concentrations (i.e., 200 nM and 1000 nM) of hCD40-monomer using BIAcore™ SPR in a screening assay. All antibodies, except for those containing hz-HC3, captured at high levels (>300 RU) using a 100-fold dilution of the expression supernatant, indicating a high antibody titer in the supernatant except for the hz-HC3 samples. The kinetic data for the two concentrations of hCD40-monomer were fit to a 1:1 Langmuir model, to yield estimates of the kinetic and affinity values for these interactions, and for comparison of the different molecules. […] Also, for a given heavy chain, the antibodies with light chains hz-LC1 or hz-LC2 had higher CD40 affinity than those with hz-LC3, hz-LC4 or hz-LC5.

Row | Binder | Kd [nM] | koff [s⁻¹] | kon [M⁻¹ s⁻¹]
1 | B1 | 6.6 | 0.00028 | 43000
2 | B2 | 7.7 | 0.00033 | 42000
3 | B3 | 4.4 | 0.00018 | 42000
4 | B4 | 5.2 | 0.00023 | 45000
5 | B5 | 6.3 | 0.00028 | 45000
6 | B6 | 2.7 | 0.00011 | 43000
7 | B7 | 2.9 | 0.00012 | 41000
8 | B8 | 8.3 | 0.00037 | 45000
9 | B9 | 8.7 | 0.00035 | 40000
10 | B10 | 6.5 | 0.00028 | 42000
11 | B11 | 2.9 | 0.00012 | 40000
12 | B12 | 2.7 | 0.00012 | 45000
13 | B13 | 6.6 | 0.00031 | 47000
14 | B14 | 3.3 | 0.00013 | 40000
15 | B15 | 8.9 | 0.00042 | 48000
16 | B16 | 3.5 | 0.00015 | 42000
17 | B17 | 3 | 0.00012 | 39000
18 | B18 | 2.7 | 0.00012 | 45000
19 | B19 | 7.6 | 0.00035 | 46000
20 | B20 | 11 | 0.0005 | 47000
21 | B21 | 5.6 | 0.00024 | 42000
22 | B22 | 7.4 | 0.00032 | 43000
23 | B23 | 7.2 | 0.00031 | 43000
24 | B24 | 4.5 | 0.00017 | 37000
25 | B25 | 6.2 | 0.00029 | 46000
26 | B26 | 7.1 | 0.00028 | 40000
27 | B27 | 5.9 | 0.00027 | 45000
28 | B28 | 10 | 0.00048 | 48000
